T1: CD25 on CD25-expressing human cells (SUDHL-1, SR786, regulatory T cells) (human, UniProt P01589 22-272)
T1 sequence (looked up): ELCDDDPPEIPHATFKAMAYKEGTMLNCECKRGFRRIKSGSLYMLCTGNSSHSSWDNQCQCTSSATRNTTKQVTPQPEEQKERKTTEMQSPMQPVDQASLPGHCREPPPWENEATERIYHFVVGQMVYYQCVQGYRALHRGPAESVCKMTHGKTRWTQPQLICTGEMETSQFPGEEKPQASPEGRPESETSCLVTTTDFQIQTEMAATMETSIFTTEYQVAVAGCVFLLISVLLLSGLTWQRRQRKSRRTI

T2: human CD25 (ELISA antigen) (human, UniProt P01589 22-213, limits assumed)
T2 construct: The ELISA protocol is described only for cyno CD25; the human antigen's construct is not described
T2 sequence (looked up): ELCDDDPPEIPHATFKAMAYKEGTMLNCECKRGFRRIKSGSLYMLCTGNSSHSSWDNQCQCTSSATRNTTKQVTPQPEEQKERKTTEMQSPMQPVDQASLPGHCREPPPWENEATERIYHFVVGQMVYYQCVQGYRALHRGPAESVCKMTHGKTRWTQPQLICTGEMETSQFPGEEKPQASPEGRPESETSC

T3: recombinant cynomolgus monkey (cyno) CD25 (cynomolgus monkey, UniProt H6WS54 22-213)
T3 sequence: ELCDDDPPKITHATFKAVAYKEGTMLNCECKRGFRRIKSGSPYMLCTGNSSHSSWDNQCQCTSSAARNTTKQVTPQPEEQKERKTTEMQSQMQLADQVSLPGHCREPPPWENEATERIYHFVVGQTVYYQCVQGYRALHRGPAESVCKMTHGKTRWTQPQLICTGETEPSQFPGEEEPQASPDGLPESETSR


Experiments:
[1] = target: T1, CD25 on CD25-expressing human cells …; assay: cell-based or functional assay
[2] = target: T2, human CD25 (ELISA antigen); assay: ELISA on human CD25, OD450, curve fit
[3] = target: T3, recombinant cynomolgus monkey (cyno) …; assay: ELISA on coated cyno CD25, OD450, curve fit
Procedure: (§1) To test for binding to recombinant cynomolgus monkey (cyno) CD25, microtiter plates were coated with 80 ul of 1 ug/ml Cyno CD25 in 50 mM sodium carbonate pH 9.6) at 4° C. overnight. The next day, remove the protein from the wells and block with 200 ul PBS/0.1% BSA/0.05% tween20. The plate was incubated for 1 hour at room temperature. The antibodies starting at 25 nM and 3 fold serially were diluted in PBT buffer and added to the plate for incubation at RT for 1 hour. The plate was then washed and then 1:2500 dilution of HRP conjugate anti-Fab antibody was added. The plate was washed 5-10 times with PBS/tween20 to remove non-specific binders. TMB perxidase substrate and peroxidase solution were added and incubated for the time needed to develop with 80 uL of ELISA stop solution added at the end. OD measurements were then taken at […] using a plate reader (SpectraMax iD3 Plate Reader, Molecular Devices).
(§2) The ratio is indicative of a preference in binding to either cyno or human CD25.

[4] = target: T3, recombinant cynomolgus monkey (cyno) …; assay: ratio of the ELISA IC50 on cyno CD25 to that on human CD25
Procedure: as §1, §2

Row | Binder | Treg ADCC EC50 [1] | Top [2] | Top [3] | Cyno/Human [4]
1 | 7G7B6 (antibody, V domains shown) VH: EVQLVESGGDLVQPRGSLKLSCAASGFTFSSYGMSWVRQTPDKRLELVATINGYGDTTYYPDSVKGRFTISRDNAKNTLYLQMSSLKSEDTAMYFCARDRDYGNSYYYALDYWGQGTSVTVSS VL: QIVLSQSPAILSASPGERVTMTCRASSSVSFMHWLQQKPGSSPKPWIYATSNLASGVSARFSGSGSGTSYSLTITRVEAEDAATYYCQQWSSNPPAFGGGTKLEIK | 0.0194 µg/mL | 3.12 | 2.96 | 1.8
2 | hD11-H3-L2 (hD11-H3h-L2) (antibody, V domains shown) VH: QVQLVQSGAEVKKPGASLKISCKGSGYTFTDYAMHWVRQAPGQGLEWIGVISTYSGDAIYAQKFQGRATMTVDTSTSTAYLELSSLRSEDTAVYYCARGVTFDYWGQGTTVTVSS VL: DIQMTQSPSSLSASVGDRVTITCRASQDISNYLEWYQQKPGKAPKLLVYNAKTLAEGVPSRFSGSGSGTDFTLTISSLQPEDFGTYYCQHHYDTPYTFGQGTKLEIK | 0.0048 µg/mL | – | – | –
3 | hD11-H2-L1 (antibody, V domains shown) VH: QVQLVQSGAEVKKPGASVKVSCKGSGYTFTDYAMHWVRQAPGQGLEWMGVISTYSGDAIYAQKFQGRVTMTVDTSTSTAYMELSSLRSEDTAVYYCARGVTFDYWGQGTTVTVSS VL: DIQMTQSPSSLSASVGDRVTITCRASQDISNYLEWYQQKPGKAPKLLIYNAKTLAEGVPSRFSGSGSGTDFTLTISSLQPEDFATYYCQHHYDTPYTFGQGTKLEIK | 0.0178 µg/mL | – | – | –
4 | hD11-H3-L1 (hD11-H3h-L1) (antibody, V domains shown) VH: QVQLVQSGAEVKKPGASLKISCKGSGYTFTDYAMHWVRQAPGQGLEWIGVISTYSGDAIYAQKFQGRATMTVDTSTSTAYLELSSLRSEDTAVYYCARGVTFDYWGQGTTVTVSS VL: DIQMTQSPSSLSASVGDRVTITCRASQDISNYLEWYQQKPGKAPKLLIYNAKTLAEGVPSRFSGSGSGTDFTLTISSLQPEDFATYYCQHHYDTPYTFGQGTKLEIK | 0.0683 µg/mL | – | – | –
5 | hD11-H3b-L2 (antibody, V domains shown) VH: QVQLVQSGAEVKKPGASLKISCKGSGYTFTDYAMHWVRQAPGQGLEWIGVISTYSGDAIYAQKFQGRATMTVDKSTSTAYLELSSLRSEDTAVYYCARGVTFDYWGQGTTVTVSS VL: DIQMTQSPSSLSASVGDRVTITCRASQDISNYLEWYQQKPGKAPKLLVYNAKTLAEGVPSRFSGSGSGTDFTLTISSLQPEDFGTYYCQHHYDTPYTFGQGTKLEIK | 0.0077 µg/mL | – | – | –
6 | hD11-H1-L2 (antibody, V domains shown, Humanized variant of D11 (parental clone carries human IgG1)) VH: QVQLVQSGAEVKKPGASVKVSCKASGYTFTDYAMHWVRQAPGQGLEWMGVISTYSGDAIYAQKFQGRVTMTRDTSTSTVYMELSSLRSEDTAVYYCARGVTFDYWGQGTTVTVSS VL: DIQMTQSPSSLSASVGDRVTITCRASQDISNYLEWYQQKPGKAPKLLVYNAKTLAEGVPSRFSGSGSGTDFTLTISSLQPEDFGTYYCQHHYDTPYTFGQGTKLEIK | 0.0467 µg/mL | 3.1 | 3.04 | 42.4
7 | hD11-H2b-L2 (antibody, V domains shown) VH: QVQLVQSGAEVKKPGASVKVSCKGSGYTFTDYAMHWVRQAPGQGLEWMGVISTYSGDAIYAQKFQGRVTMTVDKSTSTAYMELSSLRSEDTAVYYCARGVTFDYWGQGTTVTVSS VL: DIQMTQSPSSLSASVGDRVTITCRASQDISNYLEWYQQKPGKAPKLLVYNAKTLAEGVPSRFSGSGSGTDFTLTISSLQPEDFGTYYCQHHYDTPYTFGQGTKLEIK | 0.0145 µg/mL | – | – | –
8 | hD11-H3b-L1 (antibody, V domains shown) VH: QVQLVQSGAEVKKPGASLKISCKGSGYTFTDYAMHWVRQAPGQGLEWIGVISTYSGDAIYAQKFQGRATMTVDKSTSTAYLELSSLRSEDTAVYYCARGVTFDYWGQGTTVTVSS VL: DIQMTQSPSSLSASVGDRVTITCRASQDISNYLEWYQQKPGKAPKLLIYNAKTLAEGVPSRFSGSGSGTDFTLTISSLQPEDFATYYCQHHYDTPYTFGQGTKLEIK | 0.0317 µg/mL | – | – | –
9 | hD11-H2b-L1 (antibody, V domains shown) VH: QVQLVQSGAEVKKPGASVKVSCKGSGYTFTDYAMHWVRQAPGQGLEWMGVISTYSGDAIYAQKFQGRVTMTVDKSTSTAYMELSSLRSEDTAVYYCARGVTFDYWGQGTTVTVSS VL: DIQMTQSPSSLSASVGDRVTITCRASQDISNYLEWYQQKPGKAPKLLIYNAKTLAEGVPSRFSGSGSGTDFTLTISSLQPEDFATYYCQHHYDTPYTFGQGTKLEIK | 0.0089 µg/mL | – | – | –
10 | hD11-H2-L2 (antibody, V domains shown) VH: QVQLVQSGAEVKKPGASVKVSCKGSGYTFTDYAMHWVRQAPGQGLEWMGVISTYSGDAIYAQKFQGRVTMTVDTSTSTAYMELSSLRSEDTAVYYCARGVTFDYWGQGTTVTVSS VL: DIQMTQSPSSLSASVGDRVTITCRASQDISNYLEWYQQKPGKAPKLLVYNAKTLAEGVPSRFSGSGSGTDFTLTISSLQPEDFGTYYCQHHYDTPYTFGQGTKLEIK | 0.0133 µg/mL | – | – | –
11 | hD11-H1-L1 (antibody, V domains shown) VH: QVQLVQSGAEVKKPGASVKVSCKASGYTFTDYAMHWVRQAPGQGLEWMGVISTYSGDAIYAQKFQGRVTMTRDTSTSTVYMELSSLRSEDTAVYYCARGVTFDYWGQGTTVTVSS VL: DIQMTQSPSSLSASVGDRVTITCRASQDISNYLEWYQQKPGKAPKLLIYNAKTLAEGVPSRFSGSGSGTDFTLTISSLQPEDFATYYCQHHYDTPYTFGQGTKLEIK | 0.0206 µg/mL | – | – | –
12 | D11 (original or parental) (antibody, V domains shown, also called parental D11; original D11) VH: QIQLQQPGAELVRPGVSLKISCKGSGYTFTDYAMHWVRQSHAKSLEWIGVISTYSGDAIYNQKFKGKATMTVDKSSSTAYLELARLTSDDSAIYYCARGVTFDYWGQGTTVTVSS VL: DIQMTQTTSSLSASLGDRVTITCRASQDISNYLEWYQQKQGKSPQLLVYNAKTLAEGVPSRFSGSGSGTQFSLKINSLQPEDFGSYYCQHHYDTPYTFGGGTKLEIK | 0.0135 µg/mL | 3.12 | 3.01 | 1.3

Source: patent US20220153852A1 (IBIO, published 2022)
